Measurements published in patent publication US20180194841A1 (Regeneron, published 2018).

What was measured:
[1] = biological target: T1, human CD20 (on Raji cells, CD3-, CD20+ human B-cell line; on B16F10.9/CD20 cells) (human, UniProt P11836 1-297); assay: cell-based or functional assay
T1 sequence (looked up): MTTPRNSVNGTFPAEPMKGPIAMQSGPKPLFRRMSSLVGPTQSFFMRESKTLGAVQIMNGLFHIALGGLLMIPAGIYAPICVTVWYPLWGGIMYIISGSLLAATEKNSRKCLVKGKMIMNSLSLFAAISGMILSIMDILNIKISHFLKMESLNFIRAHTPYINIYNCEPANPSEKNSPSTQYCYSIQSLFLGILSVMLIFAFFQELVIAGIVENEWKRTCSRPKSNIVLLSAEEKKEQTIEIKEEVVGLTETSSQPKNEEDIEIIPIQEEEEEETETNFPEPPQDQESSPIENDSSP

[2] = biological target: T1, human CD20 (on Raji cells, CD3-, CD20+ …); assay: cell-based or functional assay; remark: listed apart in the source
[3] = biological target: T2, His-tagged human FcγRIIA (H131) (human, UniProt P12318 36-218, limits assumed); assay: SPR steady-state, 25 C, His-tagged FcγR captured, antibody injected
T2 construct: His-tagged, captured on anti-penta-histidine chip; also called hFcyRIIA (H131); FcRγIIA
T2 sequence (looked up): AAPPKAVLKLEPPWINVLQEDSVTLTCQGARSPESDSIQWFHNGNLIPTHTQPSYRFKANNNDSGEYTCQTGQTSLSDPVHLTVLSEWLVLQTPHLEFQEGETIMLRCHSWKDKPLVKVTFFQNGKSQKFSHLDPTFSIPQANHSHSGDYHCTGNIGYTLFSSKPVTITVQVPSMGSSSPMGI
Description: (§1) The anti-CD3×anti-CD20 bispecific antibodies having chimeric constant heavy chain regions Antibody 1 and Antibody 4 were analyzed using Surface Plasmon Resonance (SPR) (Biacore) technology to determine their kinetic binding parameters to human and cynomolgus Fcγ receptors.
(§2) Briefly, SPR experiments were performed at 25° C. on a Biacore T200 instrument employing a carboxymethyl dextran-coated (CM-5) chip. A mouse monoclonal anti-penta-histidine antibody (GE Healthcare) was immobilized on the surface of the CM-5 sensor chip using standard amine-coupling chemistry. […] Kinetic association (kₐ) and dissociation (kd) rate constants were determined by processing and fitting the data to a 1:1 binding model using Scrubber 2.0 curve fitting software. Binding dissociation equilibrium constants (KD) and dissociative half-lives (t_{1/2}) were calculated from the kinetic rate constants as: KD (M)=kd/kₐ; and t_{1/2} (min)=(ln 2/(60*kd).

[4] = biological target: T3, His-tagged human FcγRIIA (R131) (human, UniProt P12318 36-218, limits assumed); assay: as above
T3 construct: His-tagged, captured on anti-penta-histidine chip; also called human FcyRIIA (R131); FcRγIIA
T3 sequence (looked up): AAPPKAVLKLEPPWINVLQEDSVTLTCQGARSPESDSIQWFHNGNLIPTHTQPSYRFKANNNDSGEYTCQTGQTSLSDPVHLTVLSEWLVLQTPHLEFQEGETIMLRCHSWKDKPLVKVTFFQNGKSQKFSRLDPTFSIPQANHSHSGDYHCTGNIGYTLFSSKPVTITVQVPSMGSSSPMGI
Description: as §1, §2

[5] = biological target: T4, His-tagged cynomolgus FcγRIIA (cynomolgus, UniProt A0A140HDN0 28-215); assay: as above
T4 construct: His-tagged, captured on anti-penta-histidine chip; also called cyno FcyRIIA
T4 sequence: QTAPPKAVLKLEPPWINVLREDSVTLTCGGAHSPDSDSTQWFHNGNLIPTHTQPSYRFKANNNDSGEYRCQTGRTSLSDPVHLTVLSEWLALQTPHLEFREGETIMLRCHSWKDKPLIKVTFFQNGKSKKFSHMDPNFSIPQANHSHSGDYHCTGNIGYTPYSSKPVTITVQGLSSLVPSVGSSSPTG
Description: as §1, §2

His-tagged human FcγRIIB = biological target: T5, His-tagged human FcγRIIB (human, UniProt P31994 46-217, limits assumed); assay: as above
T5 construct: His-tagged, captured on anti-penta-histidine chip; also called human FcyRIIB; FcRγIIB
T5 sequence (looked up): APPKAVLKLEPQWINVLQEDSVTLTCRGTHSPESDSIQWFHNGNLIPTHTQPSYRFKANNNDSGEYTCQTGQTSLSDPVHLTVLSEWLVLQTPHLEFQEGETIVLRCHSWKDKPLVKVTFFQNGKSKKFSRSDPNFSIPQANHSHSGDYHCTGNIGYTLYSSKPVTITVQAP
Description: as §1, §2

[6] = biological target: T6, His-tagged cynomolgus FcγRIIB (cynomolgus, UniProt A0A140HDP4 43-217); assay: as above
T6 construct: His-tagged, captured on anti-penta-histidine chip; also called cyno FcyRIIB
T6 sequence: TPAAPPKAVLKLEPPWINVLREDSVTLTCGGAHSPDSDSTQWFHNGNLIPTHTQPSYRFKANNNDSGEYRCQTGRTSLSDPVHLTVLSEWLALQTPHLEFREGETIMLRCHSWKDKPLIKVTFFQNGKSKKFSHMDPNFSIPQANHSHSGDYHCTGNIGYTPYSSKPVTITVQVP
Description: as §1, §2

[7] = biological target: T7, His-tagged cynomolgus FcγRIIIA (cynomolgus, UniProt Q8SPW2 17-208, limits assumed); assay: as above
T7 construct: His-tagged, captured on anti-penta-histidine chip; also called cyno FcyRIIIA
Description: as §1, §2

T7 sequence (Q8SPW2 17-208 limits assumed): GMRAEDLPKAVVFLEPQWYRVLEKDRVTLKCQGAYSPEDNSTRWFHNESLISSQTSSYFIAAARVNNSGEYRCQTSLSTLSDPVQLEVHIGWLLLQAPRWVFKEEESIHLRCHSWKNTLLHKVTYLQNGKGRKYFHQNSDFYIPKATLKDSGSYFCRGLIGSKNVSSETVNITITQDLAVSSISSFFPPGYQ

B1: Antibody 1 (CD3×CD20-chimericFc bispecific antibody) (bispecific antibody)
heavy 1: EVQLVESGGGLVQPGRSLRLSCVASGFTFNDYAMHWVRQAPGKGLEWVSVISWNSDSIGYADSVKGRFTISRDNAKNSLYLQMHSLRAEDTALYYCAKDNHYGSGSYYYYQYGMDVWGQGTTVTVSSASTKGPSVFPLAPCSRSTSESTAALGCLVKDYFPEPVTVSWNSGALTSGVHTFPAVLQSSGLYSLSSVVTVPSSSLGTKTYTCNVDHKPSNTKVDKRVESKYGPPCPPCPAPPVAGPSVFLFPPKPKDTLMISRTPEVTCVVVDVSQEDPEVQFNWYVDGVEVHNAKTKPREEQFNSTYRVVSVLTVLHQDWLNGKEYKCKVSNKGLPSSIEKTISKAKGQPREPQVYTLPPSQEEMTKNQVSLTCLVKGFYPSDIAVEWESNGQPENNYKTTPPVLDSDGSFFLYSRLTVDKSRWQEGNVFSCSVMHEALHNHYTQKSLSLSLGK
heavy 2: EVQLVESGGGLVQPGRSLRLSCAASGFTFDDYTMHWVRQAPGKGLEWVSGISWNSGSIGYADSVKGRFTISRDNAKKSLYLQMNSLRAEDTALYYCAKDNSGYGHYYYGMDVWGQGTTVTVASASTKGPSVFPLAPCSRSTSESTAALGCLVKDYFPEPVTVSWNSGALTSGVHTFPAVLQSSGLYSLSSVVTVPSSSLGTKTYTCNVDHKPSNTKVDKRVESKYGPPCPPCPAPPVAGPSVFLFPPKPKDTLMISRTPEVTCVVVDVSQEDPEVQFNWYVDGVEVHNAKTKPREEQFNSTYRVVSVLTVLHQDWLNGKEYKCKVSNKGLPSSIEKTISKAKGQPREPQVYTLPPSQEEMTKNQVSLTCLVKGFYPSDIAVEWESNGQPENNYKTTPPVLDSDGSFFLYSRLTVDKSRWQEGNVFSCSVMHEALHNRFTQKSLSLSLGK
light: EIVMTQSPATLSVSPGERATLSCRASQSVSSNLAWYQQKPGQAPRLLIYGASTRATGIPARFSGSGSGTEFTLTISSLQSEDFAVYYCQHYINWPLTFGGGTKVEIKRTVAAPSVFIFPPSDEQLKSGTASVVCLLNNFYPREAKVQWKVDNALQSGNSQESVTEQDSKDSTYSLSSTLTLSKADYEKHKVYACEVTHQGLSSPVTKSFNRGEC
notes: also called Ab 1; Ab1
Raji Cytotoxicity Activated Human T-cells [M] (EC50, calcein release) [1]: 2.5e-11 M | Raji Cytotoxicity Activated Monkey T-cells [M] (EC50, calcein release) [1]: 9.1e-12 M | % Survival B16F10.9/CD20 cells [M] (EC50, FACS, naive human PBMC effectors, 48 h) [2]: 1.95e-11 M | Kd [3]: 12 µM | Kd [4]: 19.3 µM | Kd [5]: 23.1 µM | Kd (His-tagged human FcγRIIB): 123 µM | Kd [6]: 13.9 µM | Kd [7]: 66.3 µM

B2: Antibody 2 (CD3×CD20-chimericFc bispecific antibody) (bispecific antibody)
heavy 1: EVQLVESGGGLVQPGRSLRLSCVASGFTFNDYAMHWVRQAPGKGLEWVSVISWNSDSIGYADSVKGRFTISRDNAKNSLYLQMHSLRAEDTALYYCAKDNHYGSGSYYYYQYGMDVWGQGTTVTVSSASTKGPSVFPLAPSSKSTSGGTAALGCLVKDYFPEPVTVSWNSGALTSGVHTFPAVLQSSGLYSLSSVVTVPSSSLGTQTYICNVNHKPSNTKVDKKVEPKSCDKTHTCPPCPAPPVAGPSVFLFPPKPKDTLMISRTPEVTCVVVDVSQEDPEVQFNWYVDGVEVHNAKTKPREEQFNSTYRVVSVLTVLHQDWLNGKEYKCKVSNKGLPSSIEKTISKAKGQPREPQVYTLPPSRDELTKNQVSLTCLVKGFYPSDIAVEWESNGQPENNYKTTPPVLDSDGSFFLYSKLTVDKSRWQQGNVFSCSVMHEALHNHYTQKSLSLSPGK
heavy 2: EVQLVESGGGLVQPGRSLRLSCAASGFTFDDYTMHWVRQAPGKGLEWVSGISWNSGSIGYADSVKGRFTISRDNAKKSLYLQMNSLRAEDTALYYCAKDNSGYGHYYYGMDVWGQGTTVTVASASTKGPSVFPLAPSSKSTSGGTAALGCLVKDYFPEPVTVSWNSGALTSGVHTFPAVLQSSGLYSLSSVVTVPSSSLGTQTYICNVNHKPSNTKVDKKVEPKSCDKTHTCPPCPAPPVAGPSVFLFPPKPKDTLMISRTPEVTCVVVDVSQEDPEVQFNWYVDGVEVHNAKTKPREEQFNSTYRVVSVLTVLHQDWLNGKEYKCKVSNKGLPSSIEKTISKAKGQPREPQVYTLPPSRDELTKNQVSLTCLVKGFYPSDIAVEWESNGQPENNYKTTPPVLDSDGSFFLYSKLTVDKSRWQQGNVFSCSVMHEALHNRFTQKSLSLSPGK
light: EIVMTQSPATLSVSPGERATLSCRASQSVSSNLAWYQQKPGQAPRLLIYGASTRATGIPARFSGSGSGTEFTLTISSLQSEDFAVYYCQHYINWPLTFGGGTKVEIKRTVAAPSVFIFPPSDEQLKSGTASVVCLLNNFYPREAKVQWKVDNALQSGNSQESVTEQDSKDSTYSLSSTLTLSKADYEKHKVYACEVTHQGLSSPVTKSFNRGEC
notes: also called Ab 2
Kd [3]: 11.7 µM | Kd [4]: 20.5 µM | Kd [5]: 23.5 µM | Kd (His-tagged human FcγRIIB): 233 µM | Kd [6]: 14.6 µM | Kd [7]: 42.4 µM
